According to paper PMC6910952 (Nature Communications, 2019):
Positions count from the first letter of the chain named.

How the values were obtained:
Test in all cases: pull-down; GST-yNpl4 (0.5 μM, wild type or mutant) on Glutathione Sepharose 4B beads, 1 h at room temperature with 0.5 μM yUfd1, 3 μM Cdc48 (0.5 μM hexamer) and 1 μg K48 chains in 100 μL 50 mM Tris-HCl pH 7.5, 100 mM NaCl, 10% glycerol, 0.1% Triton X-100; chains detected by anti-Ub immunoblot, proteins by Ponceau S
Settings in all cases: both partners purified
GST-yNpl4 T571A = molecular target: T1, GST-yNpl4 T571A (Saccharomyces cerevisiae, UniProt P33755 1-580, T571A)
T1 construct: Npl4 of Saccharomyces cerevisiae (yNpl4), full length; source: E. coli Rosetta (DE3) (pGEX-6P1), purified (Glutathione Sepharose FF, Resource Q); not shown: GST, N-terminal, kept
T1 sequence (looked up): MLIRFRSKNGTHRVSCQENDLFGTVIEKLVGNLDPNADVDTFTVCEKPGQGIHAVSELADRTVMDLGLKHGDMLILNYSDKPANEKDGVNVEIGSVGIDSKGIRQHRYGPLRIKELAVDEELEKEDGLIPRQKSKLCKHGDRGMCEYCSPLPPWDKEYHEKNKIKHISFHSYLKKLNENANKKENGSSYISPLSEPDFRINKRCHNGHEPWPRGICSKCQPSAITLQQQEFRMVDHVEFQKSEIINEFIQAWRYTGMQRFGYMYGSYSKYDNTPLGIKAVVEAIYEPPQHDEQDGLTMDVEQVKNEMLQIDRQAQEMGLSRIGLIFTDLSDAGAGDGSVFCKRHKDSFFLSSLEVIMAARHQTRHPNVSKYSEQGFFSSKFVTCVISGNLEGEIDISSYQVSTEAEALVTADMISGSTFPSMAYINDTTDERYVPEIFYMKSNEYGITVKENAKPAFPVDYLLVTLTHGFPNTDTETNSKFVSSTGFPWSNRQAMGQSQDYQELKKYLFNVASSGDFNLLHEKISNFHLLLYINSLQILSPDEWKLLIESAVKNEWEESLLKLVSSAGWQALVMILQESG

GST-yNpl4 M574A = molecular target: T2, GST-yNpl4 M574A (Saccharomyces cerevisiae, UniProt P33755 1-580, M574A)
T2 construct: Npl4 of Saccharomyces cerevisiae (yNpl4), full length; source: E. coli Rosetta (DE3) (pGEX-6P1), purified (Glutathione Sepharose FF, Resource Q); not shown: GST, N-terminal, kept
T2 sequence (looked up): T1 sequence (looked up) with A571T, M574A

GST-yNpl4 S498R = molecular target: T3, GST-yNpl4 S498R (Saccharomyces cerevisiae, UniProt P33755 1-580, S498R)
T3 construct: Npl4 of Saccharomyces cerevisiae (yNpl4), full length; source: E. coli Rosetta (DE3) (pGEX-6P1), purified (Glutathione Sepharose FF, Resource Q); not shown: GST, N-terminal, kept
T3 sequence (looked up): T1 sequence (looked up) with S498R, A571T

Measured: binding result

B1: yUfd1 (full length, untagged) (natural protein, Saccharomyces cerevisiae, UniProt P53044 1-361, looked up)
chain: MFSGFSSFGGGNGFVNMPQTFEEFFRCYPIAMMNDRIRKDDANFGGKIFLPPSALSKLSMLNIRYPMLFKLTANETGRVTHGGVLEFIAEEGRVYLPQWMMETLGIQPGSLLQISSTDVPLGQFVKLEPQSVDFLDISDPKAVLENVLRNFSTLTVDDVIEISYNGKTFKIKILEVKPESSSKSICVIETDLVTDFAPPVGYVEPDYKALKAQQDKEKKNSFGKGQVLDPSVLGQGSMSTRIDYAGIANSSRNKLSKFVGQGQNISGKAPKAEPKQDIKDMKITFDGEPAKLDLPEGQLFFGFPMVLPKEDEESAAGSKSSEQNFQGQGISLRKSNKRKTKSDHDSSKSKAPKSPEVIEID
notes: Ufd1 of Saccharomyces cerevisiae (yUfd1), full length; codon-optimized synthetic cDNA; removal of GST by HRV3C is surmised; also called untagged Ufd1; source: E. coli Rosetta (DE3) (pGEX-6P1), purified
binds: all assays above
